{"source": "paper PMC3157396", "about": "“Molecular Basis for the Recognition of Adenomatous Polyposis Coli by the Discs Large 1 Protein” (PLoS ONE, 2011)", "binders": {"B1": {"name": "GST-tagged C-terminal 11 residues of human Adenomatous Polyposis Coli (APC), residues 2833–2843 (peptide)", "chain": "RHSGSYLVTSV", "notes": "human Adenomatous Polyposis Coli (APC), C-terminal 11 residues, 2833-2843 of the 2,843-residue protein; cloned into pGEX4T1; also called GST-APC-C11; APC-C11; not shown: GST, N-terminal, kept"}, "B2": {"name": "PDZ2 domain of human DLG1 with the point mutation Q340P (domain or fragment, UniProt Q12959 315-410, looked up)", "chain": "EKIMEIKLIKGPKGLGFSIAGGVGNPHIPGDNSIYVTKIIEGGAAHKDGKLQIGDKLLAVNNVCLEEVTHEEAVTALKNTSDFVYLKVAKPTSMYM", "notes": "human DLG1 PDZ2 domain, residues 315-410, Q340P; also called PDZ2 Q340P; PDZ2-Q340P; source: E. coli BL21 (DE3), purified"}}, "key": {"[1]": {"target": "B1", "test": "ITC; ITC200, 25°C, 50 mM HEPES pH 7.5, 100 mM NaCl; PDZ domain (400 µM) injected 20 times in 2 µl aliquots into 40 µM GST-tagged APC-C11 or APC-C4; single site binding model", "settings": "both partners purified"}, "[2]": {"target": "B2", "test": "ITC; ITC200, 25°C, 50 mM HEPES pH 7.5, 100 mM NaCl; PDZ domain (400 µM) injected 20 times in 2 µl aliquots into 40 µM GST-tagged APC-C11 or APC-C4; single site binding model", "settings": "both partners purified"}}, "data": [{"binder": "PDZ2 domain of human Discs Large 1 (DLG1), residues 315–410 (domain or fragment, UniProt Q12959 315-410, looked up, human Discs Large 1/Synapse Associated Protein 97 (DLG1), PDZ2 domain, residues 315-410; cloned into a pET28a-derived vector; also called WT PDZ2; second PDZ domain of DLG1; source: E. coli BL21 (DE3), purified (Ni2+-NTA, Superdex 200 gel filtration)) EKIMEIKLIKGPKGLGFSIAGGVGNQHIPGDNSIYVTKIIEGGAAHKDGKLQIGDKLLAVNNVCLEEVTHEEAVTALKNTSDFVYLKVAKPTSMYM", "values": [{"measurement": "dH", "setting": "[1]", "value": "-7.09 ± 0.19", "unit": "kcal/mol"}, {"measurement": "stoichiometry N", "setting": "[1]", "value": "0.916 ± 0.018"}]}, {"binder": "B1", "values": [{"measurement": "Kd", "setting": "[2]", "value": "9.8 ± 1.11", "unit": "µM"}]}, {"binder": "B2", "values": [{"measurement": "dH", "setting": "[1]", "value": "-6.76 ± 0.27", "unit": "kcal/mol"}, {"measurement": "stoichiometry N", "setting": "[1]", "value": "1.04 ± 0.03"}]}]}
